Measured values: patent publication EP2718310B1 (TLA Targeted Immunotherapies AB, dated 2017)
Each block holds one molecule with its values, some of them ahead of it.

Key:
CCR3 (human) [1] = molecular target: CCR3 (human) (UniProt P51677); assay: cell-based or functional assay
hCCR2b = molecular target: T1, hCCR2b (human, UniProt P41597 1-374); assay: cell-based or functional assay
T1 chain: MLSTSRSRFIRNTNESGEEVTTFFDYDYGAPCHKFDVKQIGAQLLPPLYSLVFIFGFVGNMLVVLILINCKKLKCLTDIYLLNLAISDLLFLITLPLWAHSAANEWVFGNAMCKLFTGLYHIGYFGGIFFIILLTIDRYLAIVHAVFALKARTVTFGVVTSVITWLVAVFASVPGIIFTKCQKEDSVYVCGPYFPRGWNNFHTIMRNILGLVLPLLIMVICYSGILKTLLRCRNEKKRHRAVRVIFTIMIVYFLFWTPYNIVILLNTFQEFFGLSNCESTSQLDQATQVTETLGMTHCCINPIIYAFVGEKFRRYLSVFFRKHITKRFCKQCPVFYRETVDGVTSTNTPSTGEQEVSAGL

CCR5 (human) [2] = molecular target: CCR5 (human) (UniProt P51681); assay: cell-based or functional assay
CCR9 (human) = CCR9 (human) (UniProt P51686); assay: cell-based or functional assay
CCR1 = CCR1 (UniProt P32246); assay: in vitro depletion: biotinylated RANTES coupled matrix, flow cytometry for CCR1, 3 or 5-expressing cells (receptor not singled out)
CCR3 (human) [3] = molecular target: CCR3 (human) (UniProt P51677); assay: as above
CCR5 (human) [4] = molecular target: CCR5 (human) (UniProt P51681); assay: as above
CCR3 (human) [5] = molecular target: CCR3 (human) (UniProt P51677); assay: in vitro depletion: blood passed through magnetic column with eotaxin coupled MACS beads, flow cytometry for CCR3-expressing cells

Sequence of CCR3 (human) (P51677 whole entry): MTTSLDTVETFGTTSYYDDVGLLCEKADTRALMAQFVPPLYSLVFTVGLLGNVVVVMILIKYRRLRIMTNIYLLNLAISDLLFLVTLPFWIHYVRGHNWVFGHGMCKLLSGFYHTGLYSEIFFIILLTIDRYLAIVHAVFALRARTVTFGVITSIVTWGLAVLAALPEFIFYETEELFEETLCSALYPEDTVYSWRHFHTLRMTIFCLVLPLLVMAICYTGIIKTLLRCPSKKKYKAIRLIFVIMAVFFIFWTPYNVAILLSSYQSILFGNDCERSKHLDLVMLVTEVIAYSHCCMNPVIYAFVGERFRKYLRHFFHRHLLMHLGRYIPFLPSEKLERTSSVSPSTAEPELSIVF
Sequence of CCR9 (human) (P51686 whole entry): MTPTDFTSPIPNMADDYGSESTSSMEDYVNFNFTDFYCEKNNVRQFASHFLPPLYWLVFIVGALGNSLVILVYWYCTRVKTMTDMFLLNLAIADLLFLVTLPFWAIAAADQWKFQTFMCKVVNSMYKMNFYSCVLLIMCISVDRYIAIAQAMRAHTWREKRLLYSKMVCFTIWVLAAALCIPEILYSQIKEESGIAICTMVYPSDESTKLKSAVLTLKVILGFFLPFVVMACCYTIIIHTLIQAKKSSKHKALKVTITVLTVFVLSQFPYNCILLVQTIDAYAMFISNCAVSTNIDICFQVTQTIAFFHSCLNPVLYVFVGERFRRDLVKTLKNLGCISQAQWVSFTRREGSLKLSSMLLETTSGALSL
Sequence of CCR5 (human) (P51681 whole entry): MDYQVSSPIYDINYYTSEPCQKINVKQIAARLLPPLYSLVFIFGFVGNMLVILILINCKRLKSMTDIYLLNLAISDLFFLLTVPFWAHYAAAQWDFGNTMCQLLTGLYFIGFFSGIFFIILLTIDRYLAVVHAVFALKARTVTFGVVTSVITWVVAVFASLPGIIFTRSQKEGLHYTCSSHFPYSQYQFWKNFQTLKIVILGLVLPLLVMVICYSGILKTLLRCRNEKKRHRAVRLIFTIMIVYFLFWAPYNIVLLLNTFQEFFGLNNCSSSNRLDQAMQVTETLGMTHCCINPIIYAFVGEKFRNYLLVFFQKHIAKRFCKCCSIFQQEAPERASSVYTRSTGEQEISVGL
Sequence of CCR1 (P32246 whole entry): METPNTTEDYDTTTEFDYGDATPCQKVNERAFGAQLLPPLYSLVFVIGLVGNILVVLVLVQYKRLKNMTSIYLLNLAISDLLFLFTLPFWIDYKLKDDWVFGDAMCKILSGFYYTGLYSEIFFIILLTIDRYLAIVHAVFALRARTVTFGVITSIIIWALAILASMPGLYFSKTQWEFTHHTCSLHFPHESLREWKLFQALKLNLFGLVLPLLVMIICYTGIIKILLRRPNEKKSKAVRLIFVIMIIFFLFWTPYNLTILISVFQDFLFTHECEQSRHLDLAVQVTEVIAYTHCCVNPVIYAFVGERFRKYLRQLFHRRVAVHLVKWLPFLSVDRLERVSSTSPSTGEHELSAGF

Molecule: biotinMCP-2 (CCL8) (ligand)
- EC50, Aequorin assay (partial agonist) (hCCR2b): 50.9 nM

Molecule: biotinTECK(Met to Nleu substitution) (ligand)
- EC50, Aequorin assay (agonist activity) (CCR9 (human)): 63.6 nM

Molecule: biotinylated RANTES coupled matrix (ligand)
- reduction of receptor-expressing cells by the column (CCR1): 20%
- reduction of receptor-expressing cells by the column (CCR3 (human) [3]): 20%
- reduction of receptor-expressing cells by the column (CCR5 (human) [4]): 20%

Molecule: recombinant native TECK (from UniProt O15444 24-150) (ligand)
- EC50, Aequorin assay (agonist activity) (CCR9 (human)): 67.9 nM

Molecule: recombinant native eotaxin (ligand)
- EC50, Aequorin assay (agonist) (CCR3 (human) [1]): 10.7 nM

Next, values leading:

- EC50, Aequorin assay (antagonist) (CCR3 (human) [1]): 212 nM
Molecule: biotinEotaxin (CCL11) (ligand)

- EC50, Aequorin assay (agonist activity) (CCR5 (human) [2]): 0.5 nM
Molecule: biotinRANTES (CCL5) (ligand)

- reduction of receptor-expressing cells by the column (CCR3 (human) [5]): 25%
Molecule: biotinylated eotaxin coupled matrix (ligand)

- EC50, Aequorin assay (partial agonist) (hCCR2b): 23.5 nM
B1: recombinant native MCP-2 (ligand, UniProt P80075 24-99, looked up)
chain: QPDSVSIPITCCFNVINRKIPIQRLESYTRITNIQCPKEAVIFKTKRGKEVCADPKERWVRDSMKHLDQIFQNLKP
